{"source": "paper PMC2962499", "key": {"[1]": {"biological_target": "Schizosaccharomyces pombe Rpn10, full-length (residues 1-243) (Schizosaccharomyces pombe) (UniProt O94444)", "sequence (O94444 whole entry, the tested form may be a part)": "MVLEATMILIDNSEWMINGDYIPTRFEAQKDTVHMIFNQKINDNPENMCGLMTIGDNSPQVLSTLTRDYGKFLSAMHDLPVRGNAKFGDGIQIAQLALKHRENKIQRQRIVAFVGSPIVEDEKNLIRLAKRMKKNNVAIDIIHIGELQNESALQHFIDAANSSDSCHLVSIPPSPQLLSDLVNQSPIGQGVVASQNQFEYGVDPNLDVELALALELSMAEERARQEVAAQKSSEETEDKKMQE", "experiment": "ITC"}, "[2]": {"biological_target": "Schizosaccharomyces pombe Rpn10, full-length (residues 1-243) (Schizosaccharomyces pombe) (UniProt O94444)", "experiment": "AUC"}, "[3]": {"biological_target": "Schizosaccharomyces pombe Rpn10, full-length (residues 1-243) (Schizosaccharomyces pombe) (UniProt O94444)", "experiment": "SPR"}}}
{"substance": "Lys48-linked diubiquitin (from UniProt P0CG47 1-76; P0CG47 1-76)", "values": [{"measurement": "Kd", "setting": "[1]", "result": 13.9, "unit": "µM"}, {"measurement": "stoichiometry N", "setting": "[1]", "result": 1}, {"measurement": "stoichiometry N", "setting": "[2]", "result": 1}, {"measurement": "Kd", "setting": "[3]", "result": 35, "unit": "µM"}]}
{"substance": "Lys63-linked diubiquitin (from UniProt P0CG47 1-76; P0CG47 1-76)", "values": [{"measurement": "KD of each of the two equivalent sites", "setting": "[1]", "result": 134, "unit": "µM"}, {"measurement": "stoichiometry N", "setting": "[2]", "result": 1}]}
